Test results from US20030021776.

Key:
[1] = biological target: VEGF 1D (synthetic) (UniProt P08047); assay: EMSA
[2] = system: VG 8A (VZ-475) (synthetic); assay: EMSA
[3] = system: EP10A (synthetic); assay: EMSA
[4] = system: mVZ+57 (VG10A/8A, MVG) (synthetic); assay: EMSA; details: text printed as Kds of 0.031 nM for the designed ZFPs; 100 mM KCl, 1 mM MgCl2, Zn
[5] = biological target: VEGF 1A (synthetic) (UniProt P08047); assay: EMSA
[6] = biological target: VEGF 1 (VZ-8) (synthetic) (UniProt P08047); assay: EMSA
[7] = biological target: VEGF 1* (synthetic) (UniProt P08047); assay: EMSA
[8] = system: HP38 4A (synthetic); assay: EMSA
Sequence of HP38 4A (synthetic) (chain, as listed by the source): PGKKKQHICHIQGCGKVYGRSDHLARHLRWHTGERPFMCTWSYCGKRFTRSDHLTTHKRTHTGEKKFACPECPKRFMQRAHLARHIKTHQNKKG

[9] = system: HUM 17A (VZ+472) (synthetic); assay: EMSA; details: F3 printed RSDNLTZ, listing RSDNLTQ
Sequence of HUM 17A (VZ+472) (synthetic) (chain, as listed by the source): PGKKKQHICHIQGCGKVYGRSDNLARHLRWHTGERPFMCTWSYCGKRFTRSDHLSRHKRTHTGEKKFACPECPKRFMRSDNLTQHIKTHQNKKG

[10] = system: VOP 30A-4 (VZ+42/+530, mVZ+509) (synthetic); assay: EMSA; details: 170 mM KCl, 1.7 mM MgCl2, Zn
Sequence of VOP 30A-4 (VZ+42/+530, mVZ+509) (synthetic) (chain, as listed by the source): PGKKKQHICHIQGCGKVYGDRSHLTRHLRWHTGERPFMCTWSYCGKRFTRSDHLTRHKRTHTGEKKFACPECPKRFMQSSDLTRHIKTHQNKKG

[11] = system: PDF 5A (VZ+590) (synthetic); assay: EMSA
Sequence of PDF 5A (VZ+590) (synthetic) (chain, as listed by the source): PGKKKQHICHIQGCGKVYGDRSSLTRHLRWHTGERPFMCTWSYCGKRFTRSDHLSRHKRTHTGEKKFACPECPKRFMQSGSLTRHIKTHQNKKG

[12] = system: SAN 16A (synthetic); assay: EMSA
Sequence of SAN 16A (synthetic) (chain, as listed by the source): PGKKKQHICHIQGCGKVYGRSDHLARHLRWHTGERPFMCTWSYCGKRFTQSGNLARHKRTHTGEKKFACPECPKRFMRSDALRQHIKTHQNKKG

[13] = system: RAT 24A (synthetic); assay: EMSA
Sequence of RAT 24A (synthetic) (chain, as listed by the source): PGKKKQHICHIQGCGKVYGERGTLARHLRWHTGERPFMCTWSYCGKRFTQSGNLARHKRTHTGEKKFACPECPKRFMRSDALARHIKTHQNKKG

[14] = system: VG10A/8A-VP16 (synthetic); assay: cell_activity; details: mouse VEGF promoter reporter activation in mouse cells
[15] = biological target: ZEN-7A 1 (VZ-573) (synthetic) (UniProt P08047); assay: EMSA
[16] = biological target: VEGF 1C (synthetic) (UniProt P08047); assay: EMSA
[17] = biological target: HBV 3 (synthetic) (UniProt P08047); assay: EMSA
[18] = system: GATA82Z678 (synthetic); assay: EMSA
Sequence of GATA82Z678 (synthetic) (chain, as listed by the source): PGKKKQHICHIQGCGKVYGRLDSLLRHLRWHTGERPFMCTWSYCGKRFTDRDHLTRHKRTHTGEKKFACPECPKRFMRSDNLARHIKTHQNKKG

Sequence of VG 8A (VZ-475) (synthetic) (chain, as listed by the source): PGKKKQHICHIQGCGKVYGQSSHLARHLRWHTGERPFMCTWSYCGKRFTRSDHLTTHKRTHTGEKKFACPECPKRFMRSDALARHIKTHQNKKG
Sequence of EP10A (synthetic) (chain, as listed by the source): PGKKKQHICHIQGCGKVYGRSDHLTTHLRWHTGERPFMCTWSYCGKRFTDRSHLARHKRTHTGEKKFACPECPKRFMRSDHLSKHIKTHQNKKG

Sequence: GGGGAGGMT (double strand) [VEGF 1D target]
- Kd [1]: 2 nM

Sequence: GDGTGGGGN (double strand) [VG 8A target]
- Kd [2]: 0.35 nM

Sequence: KGGGGCTGG (double strand) [EP10A target]
- Kd [3]: 0.35 nM

Sequence: TGAGCGGCGGCAGCGGAGC (double strand) [mVZ+57 target]
- Kd [4]: < 0.031 nM

Sequence: GGGGAGGVK (double strand) [VEGF 1 / 1* / 1A target]
- Kd [5]: 0.2 nM
- Kd [6]: 2.83 nM
- Kd [7]: 3 nM

Sequence: GGDTGGGGG (double strand) [HP38 4A target]
- Kd [8]: 0.74 nM

Sequence: ARGGGGGAG (double strand) [HUM 17A target]
- Kd [9]: < 0.02 nM

Sequence: GCTGGGGGCK (double strand) [VZ+42/+530 target]
- Kd [10]: < 0.02 nM

Sequence: GYAGGGGCC (double strand) [PDF 5A target]
- Kd [11]: 0.23 nM

Sequence: AKGGAAGGG (double strand) [SAN 16A target]
- Kd [12]: 1.03 nM

Sequence: GDGGAAGHC (double strand) [RAT 24A target]
- Kd [13]: < 0.02 nM

Sequence: TGAGCGGCGGCAGCGGAG (double strand) [VG10A/8A target]
- activity [14]: 29 fold

Sequence: GGGGGHGCT (double strand) [ZEN-7A 1 target]
- Kd [15]: 0.63 nM

Sequence: GGGGVGGAT (double strand) [VEGF 1C target]
- Kd [16]: 1 nM

Sequence: GGGGGAGGW (double strand) [HBV 3 target]
- Kd [17]: 30 nM

Sequence: GAGKGKGYG (double strand) [GATA82Z678 target]
- Kd [18]: 1.8 nM
